Results taken from patent EP2103936A1.

Assays:
[1] = target: bt-MalE (Escherichia coli) [MBP: P0AEX9]; assay: Biacore kinetics, bt-MalE on streptavidin SA chip, buffer M3 (5 mM DTT), 25 °C, Langmuir model
[2] = target: bt-MalE (Escherichia coli) [MBP: P0AEX9]; assay: Biacore kinetics, bt-MalE on SA chip, buffer M2 (no reducing agent), heterogeneous analyte model, population 2 (kon2), taken as the non-coupled molecules of the N45ANBD preparation
[3] = target: bt-MalE (Escherichia coli) [MBP: P0AEX9]; assay: Biacore kinetics, bt-MalE on SA chip, buffer M2 (no reducing agent), heterogeneous analyte model, population 2 (kon2), taken as the non-coupled molecules of the L53ANBD preparation
[4] = target: bt-MalE (Escherichia coli) [MBP: P0AEX9]; assay: Biacore kinetics, bt-MalE on SA chip, buffer M2 (no reducing agent), heterogeneous analyte model, population 2 (kon2), taken as the non-coupled molecules of the T46ANBD preparation, possibly dimeric
[5] = target: bt-MalE (Escherichia coli) [MBP: P0AEX9]; assay: Biacore kinetics, bt-MalE on SA chip, buffer M2 (no reducing agent), heterogeneous analyte model, population 2 (kon2), taken as the non-coupled molecules of the R23ANBD preparation

Substance	kon [1] [M⁻¹ s⁻¹]	kon [2] [M⁻¹ s⁻¹]	kon [3] [M⁻¹ s⁻¹]	kon [4] [M⁻¹ s⁻¹]	kon [5] [M⁻¹ s⁻¹]
DarpOff7(N45C) (designed binder)	290000	240000	–	–	–
DarpOff7(L53C) (designed binder)	370000	–	580000	–	–
DarpOff7(T46C) (designed binder)	170000	–	–	18000	–
DarpOff7(R23C) (designed binder)	410000	–	–	–	430000
